Patent publication US20210030857A1 (NGM BIOPHARMACEUTICALS, published 2021)

T1: human beta klotho expressed on cells (human, UniProt Q86Z14 1-1044)
T1 construct: also called HuKLB overexpressing cells; Human KLB
T1 sequence: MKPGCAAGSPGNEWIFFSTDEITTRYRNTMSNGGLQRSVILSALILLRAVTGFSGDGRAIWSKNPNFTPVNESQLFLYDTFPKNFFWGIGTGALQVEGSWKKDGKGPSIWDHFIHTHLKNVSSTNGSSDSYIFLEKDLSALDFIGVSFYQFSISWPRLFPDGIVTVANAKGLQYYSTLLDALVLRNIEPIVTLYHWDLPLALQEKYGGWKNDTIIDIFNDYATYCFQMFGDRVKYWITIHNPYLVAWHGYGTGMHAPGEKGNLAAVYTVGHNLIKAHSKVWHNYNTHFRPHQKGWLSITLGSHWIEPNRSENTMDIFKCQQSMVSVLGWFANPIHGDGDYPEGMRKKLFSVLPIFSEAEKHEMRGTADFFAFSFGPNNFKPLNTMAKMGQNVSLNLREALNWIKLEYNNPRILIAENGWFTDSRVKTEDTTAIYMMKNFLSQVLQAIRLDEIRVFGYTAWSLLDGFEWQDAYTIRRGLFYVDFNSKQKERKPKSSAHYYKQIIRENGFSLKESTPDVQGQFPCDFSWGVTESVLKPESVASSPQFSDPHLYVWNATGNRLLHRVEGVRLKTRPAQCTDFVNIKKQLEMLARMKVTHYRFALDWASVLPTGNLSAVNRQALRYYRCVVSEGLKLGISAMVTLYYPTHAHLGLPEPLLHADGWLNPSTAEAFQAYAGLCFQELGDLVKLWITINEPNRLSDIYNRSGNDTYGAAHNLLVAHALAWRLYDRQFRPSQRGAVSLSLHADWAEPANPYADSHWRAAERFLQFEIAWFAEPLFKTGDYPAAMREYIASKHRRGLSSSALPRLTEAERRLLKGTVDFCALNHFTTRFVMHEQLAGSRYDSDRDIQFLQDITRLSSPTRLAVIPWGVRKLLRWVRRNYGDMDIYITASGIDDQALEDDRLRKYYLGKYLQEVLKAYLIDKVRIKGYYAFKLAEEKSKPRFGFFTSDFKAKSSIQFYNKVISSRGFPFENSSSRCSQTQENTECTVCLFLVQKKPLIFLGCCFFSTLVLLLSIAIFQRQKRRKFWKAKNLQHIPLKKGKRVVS


Tests used:
[1] = molecular target: T1, human beta klotho expressed on cells; experiment: FACS competition on HuKLB-overexpressing cells; row antibody unlabelled; competitor 3I13-Alexa488 (labelled, EC10); MFI of the label
Procedure: (§1) For example, for competition binding assays by FACS analysis, antibody standards were prepared that were conjugated to a fluorochrome using either A488 or A647 antibody labeling kit (Invitrogen) following manufacturer's instructions. A dose titration of the conjugated antibody standard was evaluated using HuKLB overexpressing cells. The plateau of the maximal signal of antibody binding is EC=100 and the background signal is EC=0. Competition by FACS against the fluorochrome labeled antibody was performed by pre-incubating HuKLB overexpressing cells with hybridoma supernatants for 15 minutes at room temperature. Without washing, an EC=10 concentration of A488 or A647 labelled antibody standard was added. EC=10 for an individual antibody was determined by 10% of signal using the maximum signal as (100%) and background signal as (0%). After 30 minutes at 4° C., cells are washed and analyzed by FACS. […] A partial competing antibody is one sample that show signal between labelled antibody alone and background. Antibodies that show complete competition against the same standard antibody are considered to be in the same bin.
(§2) Representative results are shown in Table 12 below reported as mean fluorescence intensity (MFI).

[2] = molecular target: T1, human beta klotho expressed on cells; experiment: FACS competition on HuKLB-overexpressing cells; row antibody unlabelled; competitor 5H23-Alexa647 (labelled, EC10); MFI of the label
Procedure: as §1, §2

[3] = molecular target: T2, human beta klotho / human FGFR1c receptor complex on cells (human, UniProt Q86Z14 1-1044; P11362 22-822); experiment: cell-based or functional assay
[4] = molecular target: T2, human beta klotho / human FGFR1c …; experiment: cell-based or functional assay; remark: listed apart in the source
[5] = molecular target: cynomolgus beta klotho / human FGFR1c receptor complex on cells (cynomolgus monkey (Macaca …)); experiment: cell-based or functional assay
Chain of cynomolgus beta klotho / human FGFR1c receptor complex on cells (cynomolgus monkey (Macaca …)) (chain, as listed by the source limits assumed, chain 1 of 2): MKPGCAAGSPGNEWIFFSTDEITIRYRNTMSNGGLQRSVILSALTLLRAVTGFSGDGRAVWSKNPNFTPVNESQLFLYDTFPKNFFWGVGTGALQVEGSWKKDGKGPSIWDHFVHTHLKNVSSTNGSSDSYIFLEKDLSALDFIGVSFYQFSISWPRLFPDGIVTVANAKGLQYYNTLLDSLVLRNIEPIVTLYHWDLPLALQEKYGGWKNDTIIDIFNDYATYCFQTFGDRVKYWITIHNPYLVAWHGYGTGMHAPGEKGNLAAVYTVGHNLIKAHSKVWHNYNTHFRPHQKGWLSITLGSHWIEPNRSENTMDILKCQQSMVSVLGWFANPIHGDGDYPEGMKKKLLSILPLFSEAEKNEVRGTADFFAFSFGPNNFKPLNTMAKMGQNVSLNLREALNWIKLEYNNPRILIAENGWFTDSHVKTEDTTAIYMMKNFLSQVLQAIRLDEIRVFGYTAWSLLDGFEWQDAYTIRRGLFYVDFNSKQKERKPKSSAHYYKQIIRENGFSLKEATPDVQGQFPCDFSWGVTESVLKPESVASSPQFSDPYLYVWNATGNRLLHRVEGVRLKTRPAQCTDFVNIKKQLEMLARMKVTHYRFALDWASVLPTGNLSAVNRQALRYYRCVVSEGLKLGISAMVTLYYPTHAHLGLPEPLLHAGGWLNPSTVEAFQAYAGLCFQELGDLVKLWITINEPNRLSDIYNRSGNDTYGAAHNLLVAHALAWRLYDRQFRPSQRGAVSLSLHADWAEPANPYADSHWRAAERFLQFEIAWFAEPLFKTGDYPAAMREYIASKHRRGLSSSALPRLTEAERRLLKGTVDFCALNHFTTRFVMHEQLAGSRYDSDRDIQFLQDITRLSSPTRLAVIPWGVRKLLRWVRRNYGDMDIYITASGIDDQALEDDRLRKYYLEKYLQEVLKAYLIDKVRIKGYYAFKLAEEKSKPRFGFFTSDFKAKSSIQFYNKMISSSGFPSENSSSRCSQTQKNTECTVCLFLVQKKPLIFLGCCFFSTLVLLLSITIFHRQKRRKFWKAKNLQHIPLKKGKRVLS
Chain of cynomolgus beta klotho / human FGFR1c receptor complex on cells (cynomolgus monkey (Macaca …)) (chain, as listed by the source limits assumed, chain 2 of 2): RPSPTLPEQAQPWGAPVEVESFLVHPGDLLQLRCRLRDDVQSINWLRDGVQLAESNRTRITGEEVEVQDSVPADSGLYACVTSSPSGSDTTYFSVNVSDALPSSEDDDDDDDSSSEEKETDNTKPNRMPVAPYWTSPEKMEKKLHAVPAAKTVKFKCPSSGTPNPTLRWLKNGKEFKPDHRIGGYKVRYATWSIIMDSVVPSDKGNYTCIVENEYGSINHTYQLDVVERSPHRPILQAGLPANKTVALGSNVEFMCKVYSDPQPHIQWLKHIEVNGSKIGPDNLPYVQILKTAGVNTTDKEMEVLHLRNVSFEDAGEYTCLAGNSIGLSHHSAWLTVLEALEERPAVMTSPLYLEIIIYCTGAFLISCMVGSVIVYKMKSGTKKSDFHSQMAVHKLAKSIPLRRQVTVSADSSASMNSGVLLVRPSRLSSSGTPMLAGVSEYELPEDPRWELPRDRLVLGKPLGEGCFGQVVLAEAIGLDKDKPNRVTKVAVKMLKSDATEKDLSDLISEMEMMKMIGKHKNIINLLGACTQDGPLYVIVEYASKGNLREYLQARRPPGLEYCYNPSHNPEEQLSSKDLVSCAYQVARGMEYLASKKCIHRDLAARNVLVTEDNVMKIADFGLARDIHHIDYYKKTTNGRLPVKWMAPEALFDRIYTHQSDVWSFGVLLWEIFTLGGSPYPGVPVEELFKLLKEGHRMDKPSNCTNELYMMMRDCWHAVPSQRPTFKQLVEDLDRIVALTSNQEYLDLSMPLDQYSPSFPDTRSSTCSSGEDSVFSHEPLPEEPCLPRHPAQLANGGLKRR

Mean Florescence Intensity (MFI) [1] [MFI]	Mean Florescence Intensity (MFI) [2] [MFI]	hAdip pERK assay EC50, Experiment - B [3] [nM]	HEK293 huKLB/R1c reporter assay EC50, Experiment - A [4] [nM]	HEK293 cynoKLB/R1c reporter assay EC50, Experiment - A [5] [nM]	HEK293 cynoKLB/R1c reporter assay EC50, Experiment - B [5] [nM]	HEK293 huKLB/R1c reporter assay EC50, Experiment - B [4] [nM]	Binder
30.5	2.4	> 67	0.527	2.46	> 10		antibody 3N20 (antibody, V domains shown, Murine monoclonal antibody) VH: QVQLQESGAELARPGASVKLSCKVSGYIFTNYGISWVKQRTGQGLEWIGEIYPRSGNTYYNEKFKGKATLTADMSSSTAYMDLRSLTSEDSAVYFCARHWDGVLDYFDYWGQGTSLTVSS VL: DIVMTQSPSSLSVSAGEKVTMSCKSSQSLLNSGNQKNYLAWYQQKPGQPPKLLIYGASTRESGVPDRFTGSGSGTDFTLTISSVQAEDLAVYYCLNDHSYPFTFGAGTKLELK
28.5	2.3	> 67					antibody 5F7 (antibody, V domains shown, Murine monoclonal antibody) VH: QVQPQESGPELVKPGALVKISCKASGYTFTRYDINWVKQRPGQGLEWIGWIYPGDISTKYNEKFKGKATLTADKSSSTAYMQLNSLTSENSAVYFCARSDYYGSRSFVYWGQGTLVTVSA VL: DIVLTQSPASLAVSLGQRATISCRASKSVSTSGYSYMHWYQQKPGQPPKLLIYLASNLESGVPARFSGSGSGTDFTLNIHPVEEEDAATYYCQHSRELPYTFGGGTKVEIK
29.8	2.3	1.66	0.102	0.165	0.218	0.0342	antibody 5H23 (antibody, V domains shown, Murine monoclonal antibody from hybridoma; also called 5H23-Alexa647 (labelled form)) VH: QVQLQQSGPELVKPGALVKISCKASGYTFTSYDINWVKQRPGQGLEWIGWIYPGDGSTKYNEKFKGKATLTADKSSRTAYMQLSSLTSENSAVYFCARSDYYGSRSFAYWGQGTLVTVSA VL: DIVLTQSPASLAVSLGQRATISCRASKSVSTSGYVYMHWNQQKPGQPPKLLIYLASYLESGVPARFSGSGSGTDFTLNIHPVEEEDAAIYYCQHSRDLTFPFGGGTKLEIK
28.7	4.2	~30	0.773	3.58	1.67		antibody 3L3 (antibody, V domains shown, Murine monoclonal antibody) VH: QVQPQESGPELVKPGTLVKISCKASGYTFTSYDINWVKQRPGQGLEWIGWIYPGDGSPKYDEKFKGKATLTADKSSSTAYMQLSSLTSENSAVYFCARSDYYGSRSFVYWGQGTLVTVSA VL: DIVLTQSPASLAVSLGQRATISCRASKSVSTSGYSYVHWYQQKPGQPPKLLIYLASNLESGVPARFSGRGSGTDFTLNIHPVEEEDAATYYCQHSGELPYTFGGGTKLEIK
30.6	2.5	> 67	0.62		0.954		antibody 1D19 (antibody, V domains shown, Murine monoclonal antibody) VH: QVQPQESGPELVKPGALVKISCKASGYTFTRYDINWMKQRPGQGLEWIGWIYPGDSSTKFNENFKDKATLTADKSSSTAYMQLSSLTSENSTVYFCARSDYYGSRSFTYWGQGTLVTVSA VL: DIVLTQSPASLAVSLGQRATISCRASKSVSTSGYSYMHWYQQKPGQPPKLLIYLASNLESGVPARFSGSGSGTDFTLNIHPVEEEDAATYYCQHSRELPYTFGGGTKLEIK
30.1	2.4	0.89	0.6	0.347	0.465	0.0783	antibody 4P5 (antibody, V domains shown, Murine monoclonal antibody) VH: QVQLQQSGPELVKPGALVKISCKASGYTFTRYDINWVKKRPGQGLEWIGWIYPGDDSTKYNEKFKGKATLTADKSSSTAYMQLSSLTSENSAVYFCARSDYYGSRSFVYWGQGTLVTVSA VL: DILLTQSPASLAVSLGQRATISCRASKSVSTSGYSYMHWYQQKPGQPPKLLIYLASNLESGVPARFSGRGSGTDFTLNIHPVEEEDAATYYCHHSGELPYTFGGGTKLEIK
30.9	3.1	1.23	0.373	0.26	0.41		antibody 2L12 (antibody, V domains shown, Murine monoclonal antibody) VH: QVQLQQSGPELVKPGALVKISCKASGYTFTRYDINWVKKRPGQGLEWIGWIYPGDDSTKYNEKFKGKATLTADKSSSTAYMQLSSLTSENSAVYFCARSDYYGSRSFVYWGQGTLVTVSA VL: DIVLTQSPASLPVSLGQRATISCRASKSVSTSGYSYLHWYQQKPGQPPKLLIYLASNLESGVPARFSGSGSGTDFTLNIHPVEEEDAATYYCQHSGELPYTFGGGTKLEIK
29.3	2.4	> 67					antibody 5C23 (antibody, V domains shown, Murine monoclonal antibody) VH: QVQPQESGPELVKPGALVKISCKASGYTFTRYDINWVKKRPGQGLEWIGWIYPGDGSTKYNEKFEGKATLTADKSSSTAYMQLSSLTSENSAVYFCARSDYYGSRSFVYWGQGTLVTVSA VL: DIVLTQSPDSLTVSLGQRATISCRASKSVSTSGYSYMHWYQQKPGQPPKLLIYLASNLESGVPARFSGSGSGTDFTLNIHPVEEEDAATYYCQHSRELPYTFGGGTKLEIK
26.7	2.4	> 67					antibody 1C17 (antibody, V domains shown, Murine monoclonal antibody) VH: QVQLQESGPGLVKPSQSLSLTCSVTGYSITSGYYWNWIRQFPGNKLEWMGYINYDGNSNYTPSLKNRISITRDTSKNQFFLKLNSVTPEDTATYYCARKGAYYSNYDSFDVWGTGTTVTVSS VL: DIKMTQSPSSMYASLGERVTITCKASQDINSYLSWVQQKPGKSPKTLIYRANRLVDGVPSRFSGSGSGQDYSLTISSLEYEDMGIYYCLQYDEFPFTFGSGTKLEIK
